Test results taken from patent publication US12655441B2, “PPO polypeptides tolerant to PPO-inhibiting herbicides and use thereof” (QINGDAO KINGAGROOT CHEMICAL COMPOUND CO., LTD., priority 2021, dated 2026).
Where a chain is given by its changes, count along the chain named. In names and notes the source's numbering stands.

B1: L423I (protein)
chain: MAAAAAAMATATSATAAPPLRIRDAARRTRRRGHVRCAVASGAAEAPAAPGARVSADCVVVGGGISGLCTAQALATKHGVGDVLVTEARARPGGNITTAERAGEGYLWEEGPNSFQPSDPVLTMAVDSGLKDDLVFGDPNAPRFVLWEGKLRPVPSKPGDLPFFDLMSIPGKLRAGLGALGVRAPPPGREESVEDFVRRNLGAEVFERLIEPFCSGVYAGDPSKLSMKAAFGKVWRLEDTGGSIIGGTIKTIQERGKNPKPPRDPRLPTPKGQTVASFRKGLTMLPDAITSRLGSKVKLSWKLTSITKSDNKGYALVYETPEGVVSVQAKTVVMTIPSYVASDILRPLSSDAADALSIFYYPPVAAVTVSYPKEAIRKECLIDGELQGFGQLHPRSQGVETLGTIYSSSLFPNRAPAGRVLLINYIGGSTNTGIVSKTESELVEAVDRDLRKMLINPKAVDPLVLGVRVWPQAIPQFLIGHLDHLEAAKSALGKGGYDGLFLGGNYVAGVALGRCVEGAYESASQISDYLTKYAYK
modifications: Amino-acid sequence of PPO1 from rice mutant (OsPPO1 L423I)
B2: L424T/Y426V (protein)
chain: MVAATATATAMATAASPLLNGTRIPARLRHRGLSVRCAAVAGGAAEAPASTGARLSADCVVVGGGISGLCTAQALATRHGVGDVLVTEARARPGGNITTVERPEEGYLWEEGPNSFQPSDPVLTMAVDSGLKDDLVFGDPNAPRFVLWEGKLRPVPSKPADLPFFDLMSIPGKLRAGLGALGIRPPPPGREESVEEFVRRNLGAEVFERLIEPFCSGVYAGDPSKLSMKAAFGKVWRLEETGGSIIGGTIKTIQERSKNPKPPRDARLPKPKGQTVASFRKGLAMLPNAITSSLGSKVKLLWKLTSITKSDDKGYVLEYETPEGVVSVQAKSVIMTIPSYVASNILRPLSSDAADALSRFYYPPVAAVTVSYPKEAIRKECLIDGELQGFGQLHPRSQGVETLGTIYSSSLFPNRAPDGRVLLTNVIGGATNTGIVSKTESELVEAVDRDLRKMLINSTAVDPLVLGVRVWPQAIPQFLVGHLDLLEAAKAALDRGGYDGLFLGGNYVAGVALGRCVEGAYESASQISDFLTKYAYK
modifications: Amino-acid sequence of PPO1 from corn mutant (ZmPPO1 L424T/Y426V)
B3: ZmPPO1 L424W/Y426L: Amino-acid sequence of PPO1 from corn mutant (protein)
chain: B2 chain with T424W, V426L
modifications: Amino-acid sequence of PPO1 from corn mutant (ZmPPO1 L424W/Y426L)
B4: ZmPPO1 WT: Amino-acid sequence of PPO1 from wild-type corn (protein)
chain: B2 chain with T424L, V426Y
modifications: Amino-acid sequence of PPO1 from wild-type corn (ZmPPO1 WT)
B5: L424V/Y426L (protein)
chain: B2 chain with T424V, V426L
modifications: Amino-acid sequence of PPO1 from corn mutant (ZmPPO1 L424V/Y426L)
B6: L424S/Y426V (protein)
chain: B2 chain with T424S
modifications: Amino-acid sequence of PPO1 form corn mutant (ZmPPO1 L424S/Y426V)
B7: BnPPO1-C5 WT: Amino-acid sequence of PPO1 wild-type from oilseed rape (protein)
chain: MDLSLLRPQPFLSPFSNPFPRSRPYKPPNLRCSVSGGSVVGGSSTIEGGRGGKTVAADCVIVGGGISGLCIAQALVTKHPDAAKSVMVTEAKDRVGGNIITREEQGFLWEEGPNSFQPSDPMLTMVVDSGLKDDLVLGDPTAPRFVLWNGKLRPVPSKLTDLPFFDLMSIGGKIRAGFGAIGIRPSPPGREESVEEFVRRNLGDEVFERLIEPFCSGVYAGDPAKLSMKAAFGKVWKLEENGGSIIGGAFKAIQARNKAPKTTRDPRLPKPKGQTVGSFRKGLTMLPDAISARLGDKVKVSWKLSSISKLPSGGYSLTYETPEGIVTVQSKSVVMTVPSHVASSLLRPLSDSAAEALSKLYYPPVAAVSISYPKEAIRSECLIDGELKGFGQLHPRTQKVETLGTIYSSSLFPNRAPPGRVLLLNYIGGATNTGILSKSEGELVEAVDRDLRKMLIKPSSTDPLVLGVKVWPQAIPQFLIGHIDLVDAAKASLSSSGHEGLFLGGNYVAGVALGRCVEGAYETATQVNDFMSRYAYK
modifications: Amino-acid sequence of PPO1 wild-type from oilseed rape (BnPPO1-C5)
B8: BnPPO1-C5 L424S/Y426I: Amino-acid sequence of PPO1 from oilseed rape mutant (protein)
chain: B7 chain with L424S, Y426I
modifications: Amino-acid sequence of PPO1 from oilseed rape mutant (BnPPO1-C5 L424S/Y426I)
B9: GmPPO1 WT: Amino-acid sequence of PPO1 from wild-type soybean (protein)
chain: MVSVFNEILFPPNQTLLRPSLHSPTSFFTSPTRKFPRSRPNPILRCSIAEESTASPPKTRDSAPVDCVVVGGGVSGLCIAQALATKHANANVVVTEARDRVGGNITTMERDGYLWEEGPNSFQPSDPMLTMVVDSGLKDELVLGDPDAPRFVLWNRKLRPVPGKLTDLPFFDLMSIGGKIRAGFGALGIRPPPPGHEESVEEFVRRNLGDEVFERLIEPFCSGVYAGDPSKLSMKAAFGKVWKLEKNGGSIIGGTFKAIQERNGASKPPRDPRLPKPKGQTVGSFRKGLTMLPDAISARLGNKVKLSWKLSSISKLDSGEYSLTYETPEGVVSLQCKTVVLTIPSYVASTLLRPLSAAAADALSKFYYPPVAAVSISYPKEAIRSECLIDGELKGFGQLHPRSQGVETLGTIYSSSLFPNRAPPGRVLLLNYIGGATNTGILSKTDSELVETVDRDLRKILINPNAQDPFVVGVRLWPQAIPQFLVGHLDLLDVAKASIRNTGFEGLFLGGNYVSGVALGRCVEGAYEVAAEVNDFLTNRVYK
modifications: Amino-acid sequence of PPO1 from wild-type soybean (GmPPO1)
B10: GmPPO1 L430S/Y432I: Amino-acid sequence of PPO1 from soybean mutant (protein)
chain: B9 chain with L430S, Y432I
modifications: Amino-acid sequence of PPO1 from soybean mutant (GmPPO1 L430S/Y432I)

Key:
[1] = test system: PPO-deficient Escherichia coli (ΔhemG); test: PPO-deficient E. coli (ΔhemG) transformed by rice OsPPO1 mutant genes, growth on LB medium containing herbicide; conditions: 500 nM compound A
[2] = test system: PPO-deficient Escherichia coli (ΔhemG); test: PPO-deficient E. coli (ΔhemG) transformed by corn ZmPPO1 mutant genes, growth on LB medium containing compound A; assay type: cell-based; conditions: compound A 5 μM
Method: To verify whether the mutation of the PPO1-conserved protein motif LLLNYI in other plants could also confer resistance to herbicides, the mutation combination of leucine residues at the third position and tyrosine residues at the fifth position in the protein motif LLLNYI was carried out by using the same method as described in the above examples and screened by using of the LB medium containing herbicidal compound A, and the growth inhibition was observed.

[3] = test system: Arabidopsis thaliana; test: Herbicide resistance test of Arabidopsis thaliana seeds overexpressing crop PPO1 WT or mutant on MS medium; assay type: in vivo; conditions: overexpressed in Arabidopsis thaliana seed; for tolerance to compound A compared with the overexpressed wild-type PPO1 / tolerance to compound A compared with wild-type Arabidopsis thaliana: different concentrations of compound A; for tolerance to flumioxazin compared with the overexpressed wild-type PPO1 / tolerance to flumioxazin compared with wild-type Arabidopsis thaliana: different concentrations of flumioxazin; for tolerance to saflufenacil compared with the overexpressed wild-type PPO1 / tolerance to saflufenacil compared with wild-type Arabidopsis thaliana: different concentrations of saflufenacil
Method: 1) Sowing: plump and vernalized wild-type Arabidopsis thaliana seeds were selected, treated with 75% alcohol for 1 minute, disinfected with 10% NaClO for 6 minutes, and washed with sterile water for 5 to 6 times. After the sterilization was completed, the seeds were placed on a MS medium plate for one week, then transplanted to sterilized nutrient soil (nutrient soil:vermiculite=1:1) and cultured in a greenhouse at (25±2) ° C. with a photoperiod of 16 h/8 h (light/dark).
4) Infestation of Arabidopsis thaliana inflorescences: the uninfected Arabidopsis thaliana with good growth state and lush inflorescences were selected for infection and their fruit pods were cut off from the plants by scissors prior to transformation. The Arabidopsis thaliana inflorescences were dipped in the prepared infection solution for 0.5 to 1 minute. Then the infected Arabidopsis thaliana seedlings were placed in dark and humid conditions for 24 hours. After one week, the infection was repeated.
After the transformation of dipped Arabidopsis thaliana inflorescences, Arabidopsis thaliana TO-generation seeds were collected and sowed on a resistant MS plate containing 30 mg/L hygromycin to screen positive plants.
The obtained overexpressed mutant and wild-type Arabidopsis thaliana seeds of different crops were tested for resistance on a MS medium (petri dish) containing different concentrations of PPO-inhibiting herbicidal compounds, as shown in FIG. 12-23.

| Molecule | growth of ΔhemG transformant on LB medium containing compound A, compared with the wild type [1] | growth of ΔhemG transformant on plates containing compound A, compared with ZmPPO1-WT [2] | tolerance to compound A compared with the overexpressed wild-type PPO1 [3] | tolerance to compound A compared with wild-type Arabidopsis thaliana [3] | tolerance to flumioxazin compared with the overexpressed wild-type PPO1 [3] | tolerance to flumioxazin compared with wild-type Arabidopsis thaliana [3] | tolerance to saflufenacil compared with the overexpressed wild-type PPO1 [3] | tolerance to saflufenacil compared with wild-type Arabidopsis thaliana [3] |
| --- | --- | --- | --- | --- | --- | --- | --- | --- |
| B1 | grew normally |  |  |  |  |  |  |  |
| B2 |  | grew normally without an inhibition |  |  |  |  |  |  |
| B3 |  | grew normally without an inhibition | much higher | certain level of tolerance | much higher | certain level of tolerance | much higher | certain level of tolerance |
| B4 |  |  |  | certain level of tolerance |  | certain level of tolerance |  | certain level of tolerance |
| B5 |  | grew normally without an inhibition |  |  |  |  |  |  |
| B6 |  | grew normally without an inhibition |  |  |  |  |  |  |
| B7 |  |  |  | certain level of tolerance |  | certain level of tolerance |  | certain level of tolerance |
| B8 |  |  | much higher | certain level of tolerance | much higher | certain level of tolerance | much higher | certain level of tolerance |
| B9 |  |  |  | certain level of tolerance |  | certain level of tolerance |  | certain level of tolerance |
| B10 |  |  | much higher | certain level of tolerance | much higher | certain level of tolerance | much higher | certain level of tolerance |
